Assay results reported in PMC13507205, “FAIMS-GPF XL-MS: crosslinking-mass spectrometry based on gas-phase fractionation” (Nature Communications, 2026).

Biological target: T1, CDK7 kinase fused to a C-terminal Strep-tag II sequence (UniProt P50613 1-346)
T1 construct: No cleavage of the tag is described; The theoretical mass of the trimer (113,879 Da with one phosphorylation) would fit whole chains; source: Sf21 cells, baculovirus, purified as the CAK complex (Strep-Tactin XT, eluted with biotin)
Assay: cross-linking; purified CAK complex (co-expressed, co-purified) at 0.7 mg/mL in 20 mM Hepes pH 8, 150 mM KCl, 1 mM EDTA, 1 mM DTT, 50 mM biotin; DSSO at 200 molar excess, 45 min, RT; three replicates; 4-CV FAIMS-GPF nLC-MS/MS; XLs kept if in at least 2 of 3 replicates
Settings: both partners purified

T1 sequence (P50613 whole entry, the tested form may be a part): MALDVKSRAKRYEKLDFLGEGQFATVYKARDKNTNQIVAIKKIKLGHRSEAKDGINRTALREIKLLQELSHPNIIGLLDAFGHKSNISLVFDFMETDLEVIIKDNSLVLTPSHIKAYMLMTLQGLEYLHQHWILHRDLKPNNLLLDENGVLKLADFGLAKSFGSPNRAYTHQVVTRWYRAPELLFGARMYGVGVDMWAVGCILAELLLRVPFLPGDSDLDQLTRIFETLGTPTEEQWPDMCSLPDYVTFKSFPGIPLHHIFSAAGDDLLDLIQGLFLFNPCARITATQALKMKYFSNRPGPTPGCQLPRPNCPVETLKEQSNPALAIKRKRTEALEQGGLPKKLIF

B1: MAT1 (natural protein, UniProt P51948 1-309, looked up)
chain: MDDQGCPRCKTTKYRNPSLKLMVNVCGHTLCESCVDLLFVRGAGNCPECGTPLRKSNFRVQLFEDPTVDKEVEIRKKVLKIYNKREEDFPSLREYNDFLEEVEEIVFNLTNNVDLDNTKKKMEIYQKENKDVIQKNKLKLTREQEELEEALEVERQENEQRRLFIQKEEQLQQILKRKNKQAFLDELESSDLPVALLLAQHKDRSTQLEMQLEKPKPVKPVTFSTGIKMGQHISLAPIHKLEEALYEYQPLQIETYGPHVPELEMLGRLGYLNHVRAASPQDLAGGYTSSLACHRALQDAFSGLFWQPS
notes: MAT1, subunit of the CAK heterotrimer; source: Sf21 cells, baculovirus, purified as the CAK complex (Strep-Tactin XT, eluted with biotin)
  binding result: binds
